Sequences and labels used below:
B1: PMAB134 (bispecific antibody, human IgG1, kappa)
heavy: EVQLLESGGGLVQPGGSLRLSCAASGFTFSNSDMSWVRQAPGKGLEWVSGITISGGSTYYADSVKGRFTISRDNSKNTLYLQMNSLRAEDTAVYYCARGRGGSGWLDYWGQGTLVTVSSASTKGPSVFPLAPSSKSTSGGTAALGCLVKDYFPEPVTVSWNSGALTSGVHTFPAVLQSSGLYSLSSVVTVPSSSLGTQTYICNVNHKPSNTKVDKKVEPKSCDKTHTCPPCPAPEAAGAPSVFLFPPKPKDTLMISRTPEVTCVVVDVSHEDPEVKFNWYVDGVEVHNAKTKPREEQYNSTYRVVSVLTVLHQDWLNGKEYKCKVSNKALPAPIEKTISKAKGQPREPQVYTLPPSREEMTKNQVSLTCLVKGFYPSDIAVEWESNGQPENNYKTTPPVLDSDGSFFLYSKLTVDKSRWQQGNVFSCSVMHEALHNHYTQKSLSLSPGGGGGSGGGGSGGGGSEVQLLESGGGLVQPGGSLRLSCAASGFTFSDFWMHWVRQAPGKGLEWISYISGDSGYTNYADSVKGRFTISRDNSKNTLYLQMNSLRAEDTAVYYCARDRPYYYYMDVWGKGTTVTVSSGGGGSGGGGSGGGGSGGGGSDIQMTQSPSSLSASVGDRVTITCRASQSVSRSLAWYQQKPGKAPKLLIYAASSLQSGVPSRFSGSGSGTDFTLTISSLQPEDFATYYCQQYKSYPVTFGQGTKVEIK
light: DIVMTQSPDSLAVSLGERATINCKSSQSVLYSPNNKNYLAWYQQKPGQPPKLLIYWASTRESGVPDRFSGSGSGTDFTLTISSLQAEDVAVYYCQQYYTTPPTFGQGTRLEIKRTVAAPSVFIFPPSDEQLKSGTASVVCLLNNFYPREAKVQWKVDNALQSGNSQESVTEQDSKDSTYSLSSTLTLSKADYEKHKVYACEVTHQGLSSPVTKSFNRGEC
B2: PMAB135 (bispecific antibody, human IgG1, kappa)
heavy: B1 heavy with N31S
light: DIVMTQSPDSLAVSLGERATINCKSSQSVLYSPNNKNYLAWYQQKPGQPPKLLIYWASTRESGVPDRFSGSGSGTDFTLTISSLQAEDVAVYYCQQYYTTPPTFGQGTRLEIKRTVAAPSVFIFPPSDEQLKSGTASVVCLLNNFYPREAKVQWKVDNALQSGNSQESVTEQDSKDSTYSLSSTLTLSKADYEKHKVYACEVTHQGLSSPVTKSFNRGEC
B3: PMAB136 (bispecific antibody, human IgG1, kappa)
heavy: B1 heavy with S32Y
light: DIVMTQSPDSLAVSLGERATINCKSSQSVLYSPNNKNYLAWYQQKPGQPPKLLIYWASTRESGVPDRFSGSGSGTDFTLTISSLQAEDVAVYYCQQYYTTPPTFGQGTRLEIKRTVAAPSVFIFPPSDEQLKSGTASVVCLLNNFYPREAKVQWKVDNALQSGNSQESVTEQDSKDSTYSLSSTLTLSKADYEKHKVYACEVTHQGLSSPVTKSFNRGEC
B4: PMAB139 (bispecific antibody, human IgG1, kappa)
heavy: B1 heavy with T52S
light: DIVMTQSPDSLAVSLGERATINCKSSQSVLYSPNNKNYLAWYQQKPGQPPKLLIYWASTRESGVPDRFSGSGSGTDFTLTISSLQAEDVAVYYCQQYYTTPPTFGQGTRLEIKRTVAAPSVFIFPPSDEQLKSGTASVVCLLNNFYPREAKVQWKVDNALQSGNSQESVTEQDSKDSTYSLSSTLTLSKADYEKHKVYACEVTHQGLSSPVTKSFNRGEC
B5: PMAB178 (bispecific antibody, human IgG1, kappa)
heavy: B1 heavy with N31S, S32Y, I53G
light: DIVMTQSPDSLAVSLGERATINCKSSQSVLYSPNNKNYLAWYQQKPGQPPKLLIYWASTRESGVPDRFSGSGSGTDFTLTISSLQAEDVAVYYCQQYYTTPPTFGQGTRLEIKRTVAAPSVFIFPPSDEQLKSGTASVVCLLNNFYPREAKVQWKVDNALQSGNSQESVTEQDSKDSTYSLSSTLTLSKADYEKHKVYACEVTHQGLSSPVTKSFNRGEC
B6: PMAB176 (bispecific antibody, human IgG1, kappa)
heavy: B1 heavy with N31S, S32Y, G50A
light: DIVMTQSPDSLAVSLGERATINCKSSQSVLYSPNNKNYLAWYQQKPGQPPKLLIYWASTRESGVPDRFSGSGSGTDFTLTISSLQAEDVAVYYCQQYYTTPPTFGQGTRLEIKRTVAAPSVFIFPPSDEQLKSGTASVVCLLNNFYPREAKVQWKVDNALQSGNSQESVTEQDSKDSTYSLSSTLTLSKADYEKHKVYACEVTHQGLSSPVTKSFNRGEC
B7: PMAB138 (bispecific antibody, human IgG1, kappa)
heavy: B1 heavy with G50A
light: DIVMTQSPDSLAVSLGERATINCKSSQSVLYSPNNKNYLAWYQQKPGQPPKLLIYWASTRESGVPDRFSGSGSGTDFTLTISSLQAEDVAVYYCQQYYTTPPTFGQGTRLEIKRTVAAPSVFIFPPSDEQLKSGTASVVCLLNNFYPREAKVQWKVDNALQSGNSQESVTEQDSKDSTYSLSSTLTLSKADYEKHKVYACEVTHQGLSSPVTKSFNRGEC
B8: PMAB183 (bispecific antibody, human IgG1, kappa)
heavy: B1 heavy with G50A, T52S, I53G
light: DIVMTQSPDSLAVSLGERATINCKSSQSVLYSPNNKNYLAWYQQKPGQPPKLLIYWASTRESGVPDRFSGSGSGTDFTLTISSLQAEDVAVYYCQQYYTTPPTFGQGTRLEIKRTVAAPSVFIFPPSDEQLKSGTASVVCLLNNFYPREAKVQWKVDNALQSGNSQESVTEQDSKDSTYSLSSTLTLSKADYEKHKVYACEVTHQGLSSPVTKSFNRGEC
B9: PMAB175 (bispecific antibody, human IgG1, kappa)
heavy: B1 heavy with N31S, S32Y
light: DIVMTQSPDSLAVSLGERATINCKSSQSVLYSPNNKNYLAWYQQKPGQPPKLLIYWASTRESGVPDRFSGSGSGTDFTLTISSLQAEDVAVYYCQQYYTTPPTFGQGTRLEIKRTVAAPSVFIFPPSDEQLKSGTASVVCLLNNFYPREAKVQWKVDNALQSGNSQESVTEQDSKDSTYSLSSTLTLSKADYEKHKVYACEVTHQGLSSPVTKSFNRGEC
B10: PMAB142 (bispecific antibody, human IgG1, kappa)
heavy: B1 heavy
light: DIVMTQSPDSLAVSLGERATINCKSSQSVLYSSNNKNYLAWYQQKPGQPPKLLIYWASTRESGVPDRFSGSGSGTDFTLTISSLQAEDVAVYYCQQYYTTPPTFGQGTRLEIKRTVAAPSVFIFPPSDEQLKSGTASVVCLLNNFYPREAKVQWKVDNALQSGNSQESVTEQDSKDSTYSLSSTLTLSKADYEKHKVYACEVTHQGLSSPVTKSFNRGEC
B11: PMAB140 (bispecific antibody, human IgG1, kappa)
heavy: B1 heavy with I53G
light: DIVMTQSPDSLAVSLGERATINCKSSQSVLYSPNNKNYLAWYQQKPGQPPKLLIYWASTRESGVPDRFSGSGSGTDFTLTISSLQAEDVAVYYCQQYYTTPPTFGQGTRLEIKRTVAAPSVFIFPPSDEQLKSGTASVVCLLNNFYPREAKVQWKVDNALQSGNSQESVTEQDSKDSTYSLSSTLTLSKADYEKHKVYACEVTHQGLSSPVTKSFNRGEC
B12: PMAB143 (bispecific antibody, human IgG1, kappa)
heavy: B1 heavy
light: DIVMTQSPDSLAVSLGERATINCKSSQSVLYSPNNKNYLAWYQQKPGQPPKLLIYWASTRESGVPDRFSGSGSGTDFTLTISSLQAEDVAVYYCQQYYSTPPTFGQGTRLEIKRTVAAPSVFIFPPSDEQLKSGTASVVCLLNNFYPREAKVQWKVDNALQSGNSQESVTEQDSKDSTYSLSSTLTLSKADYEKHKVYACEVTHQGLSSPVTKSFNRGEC
B13: PMAB177 (bispecific antibody, human IgG1, kappa)
heavy: B1 heavy with N31S, S32Y, T52S
light: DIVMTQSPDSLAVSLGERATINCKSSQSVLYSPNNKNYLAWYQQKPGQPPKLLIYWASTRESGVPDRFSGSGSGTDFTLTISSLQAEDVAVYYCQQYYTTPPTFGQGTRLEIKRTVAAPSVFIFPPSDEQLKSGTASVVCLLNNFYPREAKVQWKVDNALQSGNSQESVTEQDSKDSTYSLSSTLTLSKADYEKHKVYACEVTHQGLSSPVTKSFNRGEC

Substitutions are numbered along the chain they refer to. “And” between values parts separate entries of the source, which are not always exact repeats. Equal values may be shown once.

For 13 molecules, Kd results are on record in US20240301064A1 (published 2024).

This experiment deals with T1, human PD-1 (human, UniProt Q15116 25-167, limits assumed).
T1 construct: also called huPD-1
T1 sequence (Q15116 25-167 limits assumed): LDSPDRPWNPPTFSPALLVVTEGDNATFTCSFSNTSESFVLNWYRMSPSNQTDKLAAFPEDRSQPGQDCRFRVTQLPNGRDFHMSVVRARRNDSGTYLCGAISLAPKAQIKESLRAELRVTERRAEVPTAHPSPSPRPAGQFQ
As to the kind of experiment: BLI, antibody on AHC tip, soluble PD-1. On the technique in general: BLI is a label-free optical method that tracks binding on a fibre tip over time.
For B1, the Kd was 6 nM and 11.6 nM and 11.1 nM. To B2 belongs 3 nM; to B3, 36 nM. Regarding B4, the Kd worked out at 50 nM. The value for B5 was 1300 nM; that for B6 was 894 nM; that for B7 was 53 nM.

As for B8, the Kd came to 11300 nM. This Kd lies about 210-fold higher than the previous one. In the case of B9, the Kd worked out at 77.1 nM. The value for B10 was 33 nM. To B11 belongs 22 nM; to B12, 17 nM; to B13, 809 nM.

What is called Kd is the constant that tells how readily two partners part at equilibrium. A high value points to a looser complex.
